Test results taken from IntAct's records for PubMed 25910212.

B1: Emerin (Homo sapiens), P50402 (parent)
chain: MDNYADLSDTELTTLLRRYNIPHGPVVGSTRRLYEKKIFEYETQRRRLSPPSSSAASSYSFSDLNSTRGDADMYDLPKKEDALLYQSKGYNDDYYEESYFTTRTYGEPESAGPSRAVRQSVTSFPDADAFHHQVHDDDLLSSSEEECKDRERPMYGRDSAYQSITHYRPVSASRSSLDLSYYPTSSSTSFMSSSSSSSSWLTRRAIRPENRAPGAGLGQDRQVPLWGQLLLFLVFVIVLFFIYHFMQAEEGNPF
B2: Apolipoprotein D (Homo sapiens), P05090 (parent)
chain: MVMLLLLLSALAGLFGAAEGQAFHLGKCPNPPVQENFDVNKYLGRWYEIEKIPTTFENGRCIQANYSLMENGKIKVLNQELRADGTVNQIEGEATPVNLTEPAKLEVKFSWFMPSAPYWILATDYENYALVYSCTCIIQLFHVDFAWILARNPNLPPETVDSLKNILTSNNIDVKKMTVTDQVNCPKLS
partner: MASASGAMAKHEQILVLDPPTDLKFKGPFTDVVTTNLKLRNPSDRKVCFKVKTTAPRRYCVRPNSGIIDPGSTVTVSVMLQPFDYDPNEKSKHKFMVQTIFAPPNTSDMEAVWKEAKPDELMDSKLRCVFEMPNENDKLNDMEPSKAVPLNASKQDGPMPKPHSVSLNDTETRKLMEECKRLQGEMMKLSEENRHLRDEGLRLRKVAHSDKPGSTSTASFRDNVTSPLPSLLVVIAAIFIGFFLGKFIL
B3: Krev interaction trapped protein 1 (Homo sapiens), O00522 (parent)
chain: MGNPENIEDAYVAVIRPKNTASLNSREYRAKSYEILLHEVPIEGQKKKRKKVLLETKLQGNSEITQGILDYVVETTKPISPANQGIRGKRVVLMKKFPLDGEKMGREASLFIVPSVVKDNTKYTYTPGCPIFYCLQDIMRVCSESSTHFATLTARMLIALDKWLDERHAQSHFIPALFRPSPLERIKTNVINPAYATESGQTENSLHMGYSALEIKSKMLALEKADTCIYNPLFGSDLQYTNRVDKVVINPYFGLGAPDYSKIQIPKQEKWQRSMSSVTEDKERQWVDDFPLHRSACEGDSELLSRLLSERFSVNQLDSDHWAPIHYACWYGKVEATRILLEKGKCNPNLLNGQLSSPLHFAAGGGHAEIVQILLNHPETDRHITDQQGRSPLNICEENKQNNWEEAAKLLKEAINKPYEKVRIYRMDGSYRSVELKHGNNTTVQQIMEGMRLSQETQQYFTIWICSENLSLQLKPYHKPLQHVRDWPEILAELTNLDPQRETPQLFLRRDVRLPLEVEKQIEDPLAILILFDEARYNLLKGFYTAPDAKLITLASLLLQIVYGNYESKKHKQGFLNEENLKSIVPVTKLKSKAPHWTNRILHEYKNLSTSEGVSKEMHHLQRMFLQNCWEIPTYGAAFFTGQIFTKASPSNHKVIPVYVGVNIKGLHLLNMETKALLISLKYGCFMWQLGDTDTCFQIHSMENKMSFIVHTKQAGLVVKLLMKLNGQLMPTERNS
B4: Estrogen receptor beta (Homo sapiens), Q92731-3 (parent)
chain: MDIKNSPSSLNSPSSYNCSQSILPLEHGSIYIPSSYVDSHHEYPAMTFYSPAVMNYSIPSNVTNLEGGPGRQTTSPNVLWPTPGHLSPLVVHRQLSHLYAEPQKSPWCEARSLEHTLPVNRETLKRKVSGNRCASPVTGPGSKRDAHFCAVCSDYASGYHYGVWSCEGCKAFFKRSIQGHNDYICPATNQCTIDKNRRKSCQACRLRKCYEVGMVKCGSRRERCGYRLVRRQRSADEQLHCAGKAKRSGGHAPRVRELLLDALSPEQLVLTLLEAEPPHVLISRPSAPFTEASMMMSLTKLADKELVHMISWAKKIPGMRGNA
B5: Cyclin-dependent kinase 4 (Homo sapiens), P11802 (parent)
chain: MATSRYEPVAEIGVGAYGTVYKARDPHSGHFVALKSVRVPNGGGGGGGLPISTVREVALLRRLEAFEHPNVVRLMDVCATSRTDREIKVTLVFEHVDQDLRTYLDKAPPPGLPAETIKDLMRQFLRGLDFLHANCIVHRDLKPENILVTSGGTVKLADFGLARIYSYQMALTPVVVTLWYRAPEVLLQSTYATPVDMWSVGCIFAEMFRRKPLFCGNSEADQLGKIFDLIGLPPEDDWPRDVSLPRGAFPPRGPRPVQSVVPEMEESGAQLLLEMLTFNPHKRISAFRALQHSYLHKDEGNPE
partner: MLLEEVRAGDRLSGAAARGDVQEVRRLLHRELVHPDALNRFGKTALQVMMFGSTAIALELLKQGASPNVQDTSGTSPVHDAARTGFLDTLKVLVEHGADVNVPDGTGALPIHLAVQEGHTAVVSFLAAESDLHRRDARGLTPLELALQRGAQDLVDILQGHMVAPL
B6: Probetacellulin (Homo sapiens), P35070 (parent)
chain: MDRAARCSGASSLPLLLALALGLVILHCVVADGNSTRSPETNGLLCGDPEENCAATTTQSKRKGHFSRCPKQYKHYCIKGRCRFVVAEQTPSCVCDEGYIGARCERVDLFYLRGDRGQILVICLIAVMVVFIILVIGVCTCCHPLRKRRKRKKKEEEMETLGKDITPINEDIEETNIA
B7: B-cell antigen receptor complex-associated protein beta chain (Homo sapiens), P40259 (parent)
chain: MARLALSPVPSHWMVALLLLLSAEPVPAARSEDRYRNPKGSACSRIWQSPRFIARKRGFTVKMHCYMNSASGNVSWLWKQEMDENPQQLKLEKGRMEESQNESLATLTIQGIRFEDNGIYFCQQKCNNTSEVYQGCGTELRVMGFSTLAQLKQRNTLKDGIIMIQTLLIILFIIVPIFLLLDKDDSKAGMEEDHTYEGLDIDQTATYEDIVTLRTGEVKWSVGEHPGQE
B8: EGF-containing fibulin-like extracellular matrix protein 1 (Homo sapiens), Q12805 (parent)
chain: MLKALFLTMLTLALVKSQDTEETITYTQCTDGYEWDPVRQQCKDIDECDIVPDACKGGMKCVNHYGGYLCLPKTAQIIVNNEQPQQETQPAEGTSGATTGVVAASSMATSGVLPGGGFVASAAAVAGPEMQTGRNNFVIRRNPADPQRIPSNPSHRIQCAAGYEQSEHNVCQDIDECTAGTHNCRADQVCINLRGSFACQCPPGYQKRGEQCVDIDECTIPPYCHQRCVNTPGSFYCQCSPGFQLAANNYTCVDINECDASNQCAQQCYNILGSFICQCNQGYELSSDRLNCEDIDECRTSSYLCQYQCVNEPGKFSCMCPQGYQVVRSRTCQDINECETTNECREDEMCWNYHGGFRCYPRNPCQDPYILTPENRCVCPVSNAMCRELPQSIVYKYMSIRSDRSVPSDIFQIQATTIYANTINTFRIKSGNENGEFYLRQTSPVSAMLVLVKSLSGPREHIVDLEMLTVSSIGTFRTSSVLRLTIIVGPFSF
B9: Alpha-sarcoglycan (Homo sapiens), Q16586 (parent)
chain: MAETLFWTPLLVVLLAGLGDTEAQQTTLHPLVGRVFVHTLDHETFLSLPEHVAVPPAVHITYHAHLQGHPDLPRWLRYTQRSPHHPGFLYGSATPEDRGLQVIEVTAYNRDSFDTTRQRLVLEIGDPEGPLLPYQAEFLVRSHDAEEVLPSTPASRFLSALGGLWEPGELQLLNVTSALDRGGRVPLPIEGRKEGVYIKVGSASPFSTCLKMVASPDSHARCAQGQPPLLSCYDTLAPHFRVDWCNVTLVDKSVPEPADEVPTPGDGILEHDPFFCPPTEAPDRDFLVDALVTLLVPLLVALLLTLLLAYVMCCRREGRLKRDLATSDIQMVHHCTIHGNTEELRQMAASREVPRPLSTLPMFNVHTGERLPPRVDSAQVPLILDQH
B10: Tumor necrosis factor receptor superfamily member 13B (Homo sapiens), O14836-2 (parent)
chain: MSGLGRSRRGGRSRVDQEERWSLSCRKEQGKFYDHLLRDCISCASICGQHPKQCAYFCENKLRSPVNLPPELRRQRSGEVENNSDNSGRYQGLEHRGSEASPALPGLKLSADQVALVYSTLGLCLCAVLCCFLVAVACFLKKRGDPCSCQPRSRPRQSPAKSSQDHAMEAGSPVSTSPEPVETCSFCFPECRAPTQESAVTPGTPDPTCAGRWGCHTRTTVLQPCPHIPDSGLGIVCVPAQEGGPGA

Variants of: B1
Settings: with vapb_human VAPB

Row | Variant | effect of a mutation on the interaction
1 | P183T | with no effect

Variants of: B1
Settings: with tri42_human TRIM42, Q8IWZ5
Sequence of tri42_human TRIM42, Q8IWZ5 (Q8IWZ5 whole entry): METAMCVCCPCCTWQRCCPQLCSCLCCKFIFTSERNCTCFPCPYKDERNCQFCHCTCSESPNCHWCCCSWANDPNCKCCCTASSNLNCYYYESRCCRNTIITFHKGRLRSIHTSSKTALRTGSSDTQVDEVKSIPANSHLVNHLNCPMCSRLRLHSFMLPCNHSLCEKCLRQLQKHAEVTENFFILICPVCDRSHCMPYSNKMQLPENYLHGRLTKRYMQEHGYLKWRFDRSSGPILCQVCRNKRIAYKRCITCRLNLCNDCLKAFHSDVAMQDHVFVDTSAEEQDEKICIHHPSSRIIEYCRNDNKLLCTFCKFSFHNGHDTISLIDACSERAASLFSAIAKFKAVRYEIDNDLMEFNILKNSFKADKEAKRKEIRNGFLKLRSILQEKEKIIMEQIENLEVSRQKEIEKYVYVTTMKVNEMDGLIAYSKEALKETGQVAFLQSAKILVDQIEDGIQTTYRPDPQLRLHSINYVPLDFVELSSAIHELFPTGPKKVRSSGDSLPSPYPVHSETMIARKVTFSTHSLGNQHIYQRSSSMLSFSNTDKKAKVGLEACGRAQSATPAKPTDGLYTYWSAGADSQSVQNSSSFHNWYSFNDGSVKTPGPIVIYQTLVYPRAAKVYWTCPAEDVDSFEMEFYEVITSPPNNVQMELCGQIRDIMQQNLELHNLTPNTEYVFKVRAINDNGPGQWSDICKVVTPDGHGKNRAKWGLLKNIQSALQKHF

Row | Variant | effect of a mutation on the interaction
2 | P183T | with no effect

Variants of: B1
Settings: with stx4_human STX4, Q12846
Sequence of stx4_human STX4, Q12846 (Q12846 whole entry): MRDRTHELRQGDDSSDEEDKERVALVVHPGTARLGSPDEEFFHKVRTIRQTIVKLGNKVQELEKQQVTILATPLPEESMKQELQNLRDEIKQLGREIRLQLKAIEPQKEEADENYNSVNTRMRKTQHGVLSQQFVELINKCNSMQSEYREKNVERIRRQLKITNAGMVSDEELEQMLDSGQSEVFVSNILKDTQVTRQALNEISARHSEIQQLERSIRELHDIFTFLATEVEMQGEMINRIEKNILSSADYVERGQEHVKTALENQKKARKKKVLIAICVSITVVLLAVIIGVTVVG

Row | Variant | effect of a mutation on the interaction
3 | P183T | with no effect

Variants of: B1
Settings: with meox2_human MEOX2, P50222
Target sequence in this assay (P50222 whole entry): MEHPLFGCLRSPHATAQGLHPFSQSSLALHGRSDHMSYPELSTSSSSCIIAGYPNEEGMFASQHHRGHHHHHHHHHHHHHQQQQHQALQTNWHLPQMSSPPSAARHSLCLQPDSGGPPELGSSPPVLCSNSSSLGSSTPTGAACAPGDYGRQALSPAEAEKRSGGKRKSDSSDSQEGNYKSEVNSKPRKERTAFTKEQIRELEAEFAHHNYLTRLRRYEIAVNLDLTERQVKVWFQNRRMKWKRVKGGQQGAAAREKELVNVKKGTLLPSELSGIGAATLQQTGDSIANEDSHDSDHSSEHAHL

Row | Variant | effect of a mutation on the interaction
4 | P183T | with no effect

Variants of: B1
Settings: with ccd33_human CCDC33, Q8N5R6
Sequence of ccd33_human CCDC33, Q8N5R6 (Q8N5R6 whole entry): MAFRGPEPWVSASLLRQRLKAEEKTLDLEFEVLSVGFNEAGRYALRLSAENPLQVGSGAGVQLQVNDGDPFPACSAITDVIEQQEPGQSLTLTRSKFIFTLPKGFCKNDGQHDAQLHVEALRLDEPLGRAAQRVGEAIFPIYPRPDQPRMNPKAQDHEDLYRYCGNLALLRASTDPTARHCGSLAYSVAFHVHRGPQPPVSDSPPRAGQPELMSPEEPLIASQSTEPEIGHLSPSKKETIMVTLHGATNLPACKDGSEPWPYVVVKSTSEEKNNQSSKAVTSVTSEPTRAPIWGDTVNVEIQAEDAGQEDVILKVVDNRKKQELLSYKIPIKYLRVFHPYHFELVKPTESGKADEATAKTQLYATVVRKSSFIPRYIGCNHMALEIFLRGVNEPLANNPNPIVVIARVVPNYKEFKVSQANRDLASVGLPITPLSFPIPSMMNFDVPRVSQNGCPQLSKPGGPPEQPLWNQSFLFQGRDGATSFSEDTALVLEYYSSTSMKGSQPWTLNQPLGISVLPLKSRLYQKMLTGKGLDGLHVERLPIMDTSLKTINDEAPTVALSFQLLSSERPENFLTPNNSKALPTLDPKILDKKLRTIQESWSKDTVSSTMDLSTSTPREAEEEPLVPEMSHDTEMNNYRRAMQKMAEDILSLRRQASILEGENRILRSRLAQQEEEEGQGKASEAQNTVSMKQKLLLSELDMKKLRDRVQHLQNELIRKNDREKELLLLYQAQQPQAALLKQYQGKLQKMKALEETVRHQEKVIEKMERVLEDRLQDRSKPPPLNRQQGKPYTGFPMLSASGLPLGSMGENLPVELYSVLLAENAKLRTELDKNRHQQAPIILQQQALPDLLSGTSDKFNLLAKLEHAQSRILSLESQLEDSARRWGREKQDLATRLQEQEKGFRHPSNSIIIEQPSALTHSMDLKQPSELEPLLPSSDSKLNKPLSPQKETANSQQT

Row | Variant | effect of a mutation on the interaction
5 | P183T | with no effect

Variants of: B2
Settings: with vapa_human VAPA

Row | Variant | effect of a mutation on the interaction
6 | F56V | with no effect

Variants of: B3
Settings: with ccm2_human CCM2, Q9BSQ5
Sequence of ccm2_human CCM2, Q9BSQ5 (Q9BSQ5 whole entry): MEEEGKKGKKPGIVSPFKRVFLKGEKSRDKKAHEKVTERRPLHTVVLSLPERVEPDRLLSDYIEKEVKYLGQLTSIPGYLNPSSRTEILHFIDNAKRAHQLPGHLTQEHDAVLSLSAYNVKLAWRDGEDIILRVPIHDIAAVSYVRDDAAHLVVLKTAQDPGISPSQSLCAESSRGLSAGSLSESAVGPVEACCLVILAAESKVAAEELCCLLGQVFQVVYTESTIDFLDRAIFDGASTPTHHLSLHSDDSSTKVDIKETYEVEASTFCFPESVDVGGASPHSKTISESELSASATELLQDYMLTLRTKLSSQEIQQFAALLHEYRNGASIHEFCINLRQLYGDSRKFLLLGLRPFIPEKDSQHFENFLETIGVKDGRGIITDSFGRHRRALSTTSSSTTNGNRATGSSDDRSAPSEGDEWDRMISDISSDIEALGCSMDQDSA

Row | Variant | effect of a mutation on the interaction
7 | D137G | with no effect

Variants of: B4
Settings: with tfcp2_human TFCP2, Q12800
Sequence of tfcp2_human TFCP2, Q12800 (Q12800 whole entry): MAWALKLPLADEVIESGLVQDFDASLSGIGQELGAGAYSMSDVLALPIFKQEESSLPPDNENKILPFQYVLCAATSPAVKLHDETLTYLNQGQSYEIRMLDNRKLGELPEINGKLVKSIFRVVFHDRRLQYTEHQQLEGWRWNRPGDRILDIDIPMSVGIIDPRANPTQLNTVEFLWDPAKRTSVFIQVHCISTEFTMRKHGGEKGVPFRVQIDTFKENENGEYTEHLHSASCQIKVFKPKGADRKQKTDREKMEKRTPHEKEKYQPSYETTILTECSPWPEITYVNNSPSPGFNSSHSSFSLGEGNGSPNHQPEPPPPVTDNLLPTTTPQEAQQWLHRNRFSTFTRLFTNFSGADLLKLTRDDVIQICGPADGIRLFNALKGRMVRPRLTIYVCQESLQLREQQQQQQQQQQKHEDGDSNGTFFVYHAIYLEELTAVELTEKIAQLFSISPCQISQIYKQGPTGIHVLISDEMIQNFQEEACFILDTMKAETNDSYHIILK

Row | Variant | effect of a mutation on the interaction
8 | F289L | causing an interaction

Variants of: B4
Settings: with mdfi_human MDFI

Row | Variant | effect of a mutation on the interaction
9 | F289L | causing an interaction

Variants of: B5
Settings: with cdn2d_human CDKN2D

Row | Variant | effect of a mutation on the interaction
10 | R24C | with no effect
11 | R24H | with no effect
12 | S52N | with no effect
13 | N41S | with no effect

Variants of: B6
Settings: with sgta_human SGTA
Target sequence in this assay (O43765 whole entry): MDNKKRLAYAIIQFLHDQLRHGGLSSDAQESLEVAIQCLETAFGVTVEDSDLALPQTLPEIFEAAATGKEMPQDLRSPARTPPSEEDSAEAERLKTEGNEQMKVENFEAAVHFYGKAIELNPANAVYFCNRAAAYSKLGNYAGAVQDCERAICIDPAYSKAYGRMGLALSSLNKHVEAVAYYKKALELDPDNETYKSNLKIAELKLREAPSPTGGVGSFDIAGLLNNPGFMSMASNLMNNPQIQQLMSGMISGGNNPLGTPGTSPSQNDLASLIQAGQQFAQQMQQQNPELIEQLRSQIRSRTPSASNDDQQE

Row | Variant | effect of a mutation on the interaction
14 | C7G | with no effect

Variants of: B7
Settings: with sgta_human SGTA
Target sequence in this assay (O43765 whole entry): as above

Row | Variant | effect of a mutation on the interaction
15 | G137S | disrupting interaction strength

Variants of: B8
Settings: with sgta_human SGTA
Target sequence in this assay (O43765 whole entry): as above

Row | Variant | effect of a mutation on the interaction
16 | R345W | with no effect

Variants of: B8
Settings: with meox2_human MEOX2, P50222
Target sequence in this assay (P50222 whole entry): as the sequence (P50222 whole entry) above

Row | Variant | effect of a mutation on the interaction
17 | R345W | with no effect

Variants of: B9
Settings: with sgta_human SGTA
Target sequence in this assay (O43765 whole entry): as the sequence (O43765 whole entry) above

Row | Variant | effect of a mutation on the interaction
18 | R98H | with no effect
19 | T208I | with no effect
20 | M312R | with no effect

Variants of: B10
Settings: with sgta_human SGTA
Target sequence in this assay (O43765 whole entry): as above

Row | Variant | effect of a mutation on the interaction
21 | C58R | with no effect
22 | A103T | with no effect
